Data as given in article PMC7036004.
Read-outs that look alike come from different tables or passages of the source.

Tests used:
Assay in all cases: fluorescence polarization
[1] = target: T1, ΔRBRi-CTCF (3xFLAG-Halo-ΔRBRi-CTCF-6xHis) (mouse, UniProt Q61164 1-575+612-736, internal_change)
T1 sequence: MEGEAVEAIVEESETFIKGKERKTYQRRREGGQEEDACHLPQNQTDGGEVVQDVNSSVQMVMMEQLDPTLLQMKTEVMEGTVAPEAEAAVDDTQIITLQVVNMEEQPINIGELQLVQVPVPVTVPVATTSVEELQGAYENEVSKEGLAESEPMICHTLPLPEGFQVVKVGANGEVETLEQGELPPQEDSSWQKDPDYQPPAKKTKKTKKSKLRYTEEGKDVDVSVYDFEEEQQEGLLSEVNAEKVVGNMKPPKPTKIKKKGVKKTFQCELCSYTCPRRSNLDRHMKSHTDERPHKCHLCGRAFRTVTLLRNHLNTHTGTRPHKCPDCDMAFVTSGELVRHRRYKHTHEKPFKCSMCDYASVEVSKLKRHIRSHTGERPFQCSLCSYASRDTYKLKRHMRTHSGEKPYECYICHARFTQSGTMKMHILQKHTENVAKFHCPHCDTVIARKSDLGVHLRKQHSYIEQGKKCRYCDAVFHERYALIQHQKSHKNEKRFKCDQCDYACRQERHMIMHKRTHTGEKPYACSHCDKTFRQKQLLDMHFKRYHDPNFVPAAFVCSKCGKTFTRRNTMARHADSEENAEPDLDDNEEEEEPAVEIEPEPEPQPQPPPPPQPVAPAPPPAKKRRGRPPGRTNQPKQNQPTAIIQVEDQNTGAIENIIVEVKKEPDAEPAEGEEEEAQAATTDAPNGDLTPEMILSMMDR

[2] = target: T2, wt-CTCF (3xFLAG-Halo-wt-CTCF-6xHis) (mouse, UniProt Q61164 1-736)
T2 sequence: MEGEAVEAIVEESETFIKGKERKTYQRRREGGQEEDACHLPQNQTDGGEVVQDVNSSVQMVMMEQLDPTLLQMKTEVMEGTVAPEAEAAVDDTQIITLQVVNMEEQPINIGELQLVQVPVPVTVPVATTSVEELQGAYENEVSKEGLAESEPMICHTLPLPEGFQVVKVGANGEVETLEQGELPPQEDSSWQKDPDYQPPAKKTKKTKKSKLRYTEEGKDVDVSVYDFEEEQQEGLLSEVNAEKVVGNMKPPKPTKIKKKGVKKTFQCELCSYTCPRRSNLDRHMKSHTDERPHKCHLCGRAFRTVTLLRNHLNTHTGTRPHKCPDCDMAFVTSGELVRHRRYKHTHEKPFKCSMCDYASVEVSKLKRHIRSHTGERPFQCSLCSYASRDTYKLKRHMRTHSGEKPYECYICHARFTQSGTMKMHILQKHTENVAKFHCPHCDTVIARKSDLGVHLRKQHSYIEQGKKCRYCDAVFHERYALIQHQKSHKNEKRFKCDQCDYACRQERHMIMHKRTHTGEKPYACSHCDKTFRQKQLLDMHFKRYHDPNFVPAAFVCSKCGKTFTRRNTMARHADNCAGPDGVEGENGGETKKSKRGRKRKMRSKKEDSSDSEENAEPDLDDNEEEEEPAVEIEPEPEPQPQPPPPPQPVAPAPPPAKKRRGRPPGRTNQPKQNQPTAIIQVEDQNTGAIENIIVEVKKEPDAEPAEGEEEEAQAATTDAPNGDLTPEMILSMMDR

[3] = target: T1, ΔRBRi-CTCF …; remark: listed apart in the source
[4] = target: T2, wt-CTCF (3xFLAG-Halo-wt-CTCF-6xHis); remark: listed apart in the source

B1: Core CTCF binding site duplex (dsDNA)
DNA 1: AGGACCAGCAGGGGGCGCA
DNA 2: TGCGCCCCCTGCTGGTCCT
[1]
  binding result: binds
[2]
  binding result: binds

B2: Mutated core CTCF binding site duplex (dsDNA)
DNA 1: AGGATTCTAATTTCGATCA
DNA 2: TGATCGAAATTAGAATCCT
[3]
  binding result: no binding
[4]
  binding result: no binding
